For data set [1], the system named is HeLa Kyoto. Description: solubility change mitosis vs G1/S (difference of NP-40 vs SDS log2 ratios) (log2 ratio difference); higher = more soluble in mitosis.
For data set [2], the system named is HeLa Kyoto. Description: solubility in G1/S (NP-40 vs SDS abundance) (log2 ratio); higher = more soluble. As to conditions: cell cycle stage: G1/S.
Data set [3] concerns HeLa Kyoto. Nature of the data set: thermal stability score vs G1/S (z-score of summed log2 fold changes over temperatures); higher = more thermally stable than in G1/S.
Where [4] appears, read: cell cycle stage: early G1 (4.5 h after nocodazole release).
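For solubility change mitosis vs G1/S (difference of NP-40 vs SDS log2 ratios) in this document: synchronized HeLa Kyoto cells (double thymidine block for G1/S, nocodazole release for mitosis), protein amounts in NP-40 versus SDS lysates quantified by mass spectrometry, three biological replicates.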
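For solubility in G1/S (NP-40 vs SDS abundance) in this document: HeLa Kyoto cells arrested at G1/S by double thymidine block, proteins quantified by TMT10plex mass spectrometry in mild NP-40 versus SDS extracts, three biological replicates.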
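For thermal stability score vs G1/S (z-score of summed log2 fold changes over temperatures) in this document: synchronized HeLa Kyoto cells, proteins quantified by TMT10plex mass spectrometry, three biological replicates, mitosis taken 0.5 h after nocodazole release, G1/S directly after double thymidine block.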

Regarding “MASDASHALEAALEQMDGIIAGTKTGADLSDGTCEPGLASPASYMNPFPVLHLIEDLRLALEMLELPQERAALLSQIPGPTAAYIKEWFEESLSQVNHHSAASNETYQERLARLEGDKESLILQVSVLTDQVEAQGEKIRDLEVCLEGHQVKLNAAEEMLQQELLSRTSLETQKLDLMTEVSELKLKLVGMEKEQREQEEKQRKAEELLQELRHLKIKVEELENERNQYEWKLKATKAEVAQLQEQVALKDAEIERLHSQLSRTAALHSESHTERDQEIQRLKMGMETLLLANEDKDRRIEELTGLLNQYRKVKEIVMVTQGPSERTLSINEEEPEGGFSKWNATNKDPEELFKQEMPPRCSSPTVGPPPLPQKSLETRAQKKLSCSLEDLRSESVDKCMDGNQPFPVLEPKDSPFLAEHKYPTLPGKLSGATPNGEAAKSPPTICQPDATGSSLLRLRDTESGWDDTAVVNDLSSTSSGTESGPQSPLTPDGKRNPKGIKKFWGKIRRTQSGNFYTDTLGMAEFRRGGLRATAGPRLSRTRDSKGQKSDANAPFAQWSTERVCAWLEDFGLAQYVIFARQWVSSGHTLLTATPQDMEKELGIKHPLHRKKLVLAVKAINTKQEEKSALLDHIWVTRWLDDIGLPQYKDQFHESRVDRRMLQYLTVNDLLFLKVTSQLHHLSIKCAIHVLHVNKFNPHCLHRRPADESNLSPSEVVQWSNHRVMEWLRSVDLAEYAPNLRGSGVHGGLIILEPRFTGDTLAMLLNIPPQKTLLRRHLTTKFNALIGPEAEQEKREKMASPAYTPLTTTAKVRPRKLGFSHFGNIRKKKFDESTDYICPMEPSDGVSDSHRVYSGYRGLSPLDAPELDGLDQVGQIS [PPFIBP2]”, in the data set with HeLa Kyoto [1], the “solubility change mitosis (log2)” value is -0.265. The “solubility in G1/S (log2)” value in the data set on HeLa Kyoto [2] turned out to be 0.218. Also, the values for the thermal stability score in the data set with HeLa Kyoto [3] (setting [4]) and in the data set on HeLa Kyoto [3] (cell cycle stage: mitosis) were 0.328 and 0.498, respectively.

In the case of “MATAPSYPAGLPGSPGPGSPPPPGGLELQSPPPLLPQIPAPGSGVSFHIQIGLTREFVLLPAASELAHVKQLACSIVDQKFPECGFYGLYDKILLFKHDPTSANLLQLVRSSGDIQEGDLVEVVLSASATFEDFQIRPHALTVHSYRAPAFCDHCGEMLFGLVRQGLKCDGCGLNYHKRCAFSIPNNCSGARKRRLSSTSLASGHSVRLGTSESLPCTAEELSRSTTELLPRRPPSSSSSSSASSYTGRPIELDKMLLSKVKVPHTFLIHSYTRPTVCQACKKLLKGLFRQGLQCKDCKFNCHKRCATRVPNDCLGEALINGDVPMEEATDFSEADKSALMDESEDSGVIPGSHSENALHASEEEEGEGGKAQSSLGYIPLMRVVQSVRHTTRKSSTTLREGWVVHYSNKDTLRKRHYWRLDCKCITLFQNNTTNRYYKEIPLSEILTVESAQNFSLVPPGTNPHCFEIVTANATYFVGEMPGGTPGGPSGQGAEAARGWETAIRQALMPVILQDAPSAPGHAPHRQASLSISVSNSQIQENVDIATVYQIFPDEVLGSGQFGVVYGGKHRKTGRDVAVKVIDKLRFPTKQESQLRNEVAILQSLRHPGIVNLECMFETPEKVFVVMEKLHGDMLEMILSSEKGRLPERLTKFLITQILVALRHLHFKNIVHCDLKPENVLLASADPFPQVKLCDFGFARIIGEKSFRRSVVGTPAYLAPEVLLNQGYNRSLDMWSVGVIMYVSLSGTFPFNEDEDINDQIQNAAFMYPASPWSHISAGAIDLINNLLQVKMRKRYSVDKSLSHPWLQEYQTWLDLRELEGKMGERYITHESDDARWEQFAAEHPLPGSGLPTDRDLGGACPPQDHDMQGLAERISVL [PRKD2]”, in the data set with HeLa Kyoto [1], the “solubility change mitosis (log2)” value was -0.188. Also, the “solubility in G1/S (log2)” value with HeLa Kyoto [2] was -0.115. For the same sequence, the values for the thermal stability score with HeLa Kyoto [3] (setting [4]) and in the data set on HeLa Kyoto [3] (cell cycle stage: mitosis) were 0.521 and 0.296, respectively.

On to “MAVEDEGLRVFQSVKIKIGEAKNLPSYPGPSKMRDCYCTVNLDQEEVFRTKIVEKSLCPFYGEDFYCEIPRSFRHLSFYIFDRDVFRRDSIIGKVAIQKEDLQKYHNRDTWFQLQHVDADSEVQGKVHLELRLSEVITDTGVVCHKLATRIVECQGLPIVNGQCDPYATVTLAGPFRSEAKKTKVKRKTNNPQFDEVFYFEVTRPCSYSKKSHFDFEEEDVDKLEIRVDLWNASNLKFGDEFLGELRIPLKVLRQSSSYEAWYFLQPRDNGSKSLKPDDLGSLRLNVVYTEDHVFSSDYYSPLRDLLLKSADVEPVSASAAHILGEVCREKQEAAVPLVRLFLHYGRVVPFISAIASAEVKRTQDPNTIFRGNSLASKCIDETMKLAGMHYLHVTLKPAIEEICQSHKPCEIDPVKLKDGENLENNMENLRQYVDRVFHAITESGVSCPTVMCDIFFSLREAAAKRFQDDPDVRYTAVSSFIFLRFFAPAILSPNLFQLTPHHTDPQTSRTLTLISKTVQTLGSLSKSKSASFKESYMATFYEFFNEQKYADAVKNFLDLISSSGRRDPKSVEQPIVLKEGFMIKRAQGRKRFGMKNFKKRWFRLTNHEFTYHKSKGDQPLYSIPIENILAVEKLEEESFKMKNMFQVIQPERALYIQANNCVEAKDWIDILTKVSQCNQKRLTVYHPSAYLSGHWLCCRAPSDSAPGCSPCTGGLPANIQLDIDGDRETERIYSLFNLYMSKLEKMQEACGSKSVYDGPEQEEYSTFVIDDPQETYKTLKQVIAGVGALEQEHAQYKRDKFKKTKYGSQEHPIGDKSFQNYIRQQSETSTHSI [RASA3]”, for which the “solubility change mitosis (log2)” value in the data set on HeLa Kyoto [1] is -0.19. The “solubility in G1/S (log2)” value in the data set with HeLa Kyoto [2] is -0.118. For the same sequence, the thermal stability score in the data set on HeLa Kyoto [3] (setting [4]) is 0.315; in the data set with HeLa Kyoto [3] (cell cycle stage: mitosis), 0.353.

With “MDAATLTYDTLRFAEFEDFPETSEPVWILGRKYSIFTEKDEILSDVASRLWFTYRKNFPAIGGTGPTSDTGWGCMLRCGQMIFAQALVCRHLGRDWRWTQRKRQPDSYFSVLNAFIDRKDSYYSIHQIAQMGVGEGKSIGQWYGPNTVAQVLKKLAVFDTWSSLAVHIAMDNTVVMEEIRRLCRTSVPCAGATAFPADSDRHCNGFPAGAEVTNRPSPWRPLVLLIPLRLGLTDINEAYVETLKHCFMMPQSLGVIGGKPNSAHYFIGYVGEELIYLDPHTTQPAVEPTDGCFIPDESFHCQHPPCRMSIAELDPSIAVGFFCKTEDDFNDWCQQVKKLSLLGGALPMFELVELQPSHLACPDVLNLSLDSSDVERLERFFDSEDEDFEILSL [ATG4B]”, the “solubility change mitosis (log2)” value in the data set with HeLa Kyoto [1] is -0.28. In the data set on HeLa Kyoto [2], the “solubility in G1/S (log2)” value is -0.00856. Besides, the thermal stability score with HeLa Kyoto [3] (setting [4]) was -0.634; in the data set with HeLa Kyoto [3] (cell cycle stage: mitosis), 1.02.

As to “MDAWVRFSAQSQARERLCRAAQYACSLLGHALQRHGASPELQKQIRQLESHLSLGRKLLRLGNSADALESAKRAVHLSDVVLRFCITVSHLNRALYFACDNVLWAGKSGLAPRVDQEKWAQRSFRYYLFSLIMNLSRDAYEIRLLMEQESSACSRRLKGSGGGVPGGSETGGLGGPGTPGGGLPQLALKLRLQVLLLARVLRGHPPLLLDVVRNACDLFIPLDKLGLWRCGPGIVGLCGLVSSILSILTLIYPWLRLKP [PEX11B]”, in the data set with HeLa Kyoto [1], the “solubility change mitosis (log2)” value was found to be 0.18. The “solubility in G1/S (log2)” value with HeLa Kyoto [2] was -0.779. Moreover, the thermal stability score was 0.106 with HeLa Kyoto [3] (setting [4]) and 0.142 in the data set on HeLa Kyoto [3] (cell cycle stage: mitosis).

For the sequence “MDGLQASAGPLRRGRPKRRRKPQPHSGSVLALPLRSRKIRKQLRSVVSRMAALRTQTLPSENSEESRVESTADDLGDALPGGAAVAAVPDAARREPYGHLGPAELLEASPAARSLQTPSARLVPASAPPARLVEVPAAPVRVVETSALLCTAQHLAAVQSSGAPATASGPQVDNTGGEPAWDSPLRRVLAELNRIPSSRRRAARLFEWLIAPMPPDHFYRRLWEREAVLVRRQDHTYYQGLFSTADLDSMLRNEEVQFGQHLDAARYINGRRETLNPPGRALPAAAWSLYQAGCSLRLLCPQAFSTTVWQFLAVLQEQFGSMAGSNVYLTPPNSQGFAPHYDDIEAFVLQLEGRKLWRVYRPRVPTEELALTSSPNFSQDDLGEPVLQTVLEPGDLLYFPRGFIHQAECQDGVHSLHLTLSTYQRNTWGDFLEAILPLAVQAAMEENVEFRRGLPRDFMDYMGAQHSDSKDPRRTAFMEKVRVLVARLGHFAPVDAVADQRAKDFIHDSLPPVLTDRERALSVYGLPIRWEAGEPVNVGAQLTTETEVHMLQDGIARLVGEGGHLFLYYTVENSRVYHLEEPKCLEIYPQQADAMELLLGSYPEFVRVGDLPCDSVEDQLSLATTLYDKGLLLTKMPLALN [NO66]”, in the data set with HeLa Kyoto [1], the “solubility change mitosis (log2)” value came to 0.755. In addition, the “solubility in G1/S (log2)” value in the data set with HeLa Kyoto [2] is -0.879. For the same sequence, the thermal stability score is -0.151 in the data set with HeLa Kyoto [3] (setting [4]) and 0.066 with HeLa Kyoto [3] (cell cycle stage: mitosis).

As to “MDLHRAAFKMENSSYLPNPLASPALMVLASTAEASRDASIPCQQPRPFGVPVSVDKDVHIPFTNGSYTFASMYHRQGGVPGTFANRDFPPSLLHLHPQFAPPNLDCTPISMLNHSGVGAFRPFASTEDRESYQSAFTPAKRLKNCHDTESPHLRFSDADGKEYDFGTQLPSSSPGSLKVDDTGKKIFAVSGLISDREASSSPEDRNDRCKKKAAALFDSQAPICPICQVLLRPSELQEHMEQELEQLAQLPSSKNSLLKDAMAPGTPKSLLLSASIKREGESPTASPHSSATDDLHHSDRYQTFLRVRANRQTRLNARIGKMKRRKQDEGQREGSCMAEDDAVDIEHENNNRFEEYEWCGQKRIRATTLLEGGFRGSGFIMCSGKENPDSDADLDVDGDDTLEYGKPQYTEADVIPCTGEEPGEAKEREALRGAVLNGGPPSTRITPEFSKWASDEMPSTSNGESSKQEAMQKTCKNSDIEKITEDSAVTTFEALKARVRELERQLSRGDRYKCLICMDSYSMPLTSIQCWHVHCEECWLRTLGAKKLCPQCNTITAPGDLRRIYL [RNF220]”, the “solubility change mitosis (log2)” value with HeLa Kyoto [1] was -0.0624. Also, the “solubility in G1/S (log2)” value with HeLa Kyoto [2] worked out at 0.298. Besides, the thermal stability score is 0.0151 in the data set with HeLa Kyoto [3] (setting [4]) and -0.144 in the data set on HeLa Kyoto [3] (cell cycle stage: mitosis).
